Sequences and labels used below:
T1: human VEGF (human, UniProt P15692 207-395, biotinylated (site not stated))
T1 construct: Biotinylated human VEGF generated internally; also called hVEGF; hVEGF-biotin
T1 sequence: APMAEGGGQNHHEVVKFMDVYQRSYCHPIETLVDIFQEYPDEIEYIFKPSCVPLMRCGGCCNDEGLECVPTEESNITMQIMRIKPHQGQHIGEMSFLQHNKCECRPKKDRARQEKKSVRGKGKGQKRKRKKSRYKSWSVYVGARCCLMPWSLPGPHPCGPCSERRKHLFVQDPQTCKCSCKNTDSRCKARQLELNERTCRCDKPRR

B1: NVS4 heavy chain variant D31N (Fab, V domains shown)
VH: EVQLVESGGGLVQPGGSLRLSCTASGFSLTNYYYMTWVRQAPGKGLEWVGFIDPDDDPYYATWAKGRFTISRDNSKNTLYLQMNSLRAEDTAVYYCAGGDHNSGWGLDIWGQGTLVTVSS
VL: EIVMTQSPSTLSASVGDRVIITCQASEIIHSWLAWYQQKPGKAPKLLIYLASTLASGVPSRFSGSGSGAEFTLTISSLQPDDFATYYCQNVYLASTNGANFGQGTKLTVLK
notes: CDR variant of NVS4
B2: NVS4 heavy chain variant D100N + H101K (Fab, V domains shown)
VH: B1 VH with N31D, D100N, H101K
VL: B1 VL
notes: CDR variant of NVS4
B3: HC4T (Fab, V domains shown)
VH: B1 VH with D55Q, D56N, D100N, D108N
VL: B1 VL
notes: Tagged heavy chain CDR variant HC4 with NVS4 light chain
B4: NVS4 heavy chain variant N102K (Fab, V domains shown)
VH: B1 VH with N31D, N102K
VL: B1 VL
notes: CDR variant of NVS4
B5: NVS4 light chain variant T96R (Fab, V domains shown)
VH: B1 VH with N31D
VL: B1 VL with T96R
notes: CDR variant of NVS4
B6: NVS4 heavy chain variant H101K (Fab, V domains shown)
VH: B1 VH with N31D, H101K
VL: B1 VL
notes: CDR variant of NVS4
B7: NVS4 light chain variant I28K (Fab, V domains shown)
VH: B1 VH with N31D
VL: B1 VL with I28K
notes: CDR variant of NVS4
B8: HC1.2T (Fab, V domains shown)
VH: B1 VH with N31S, D55Q, D56N, D57N
VL: B1 VL
notes: Tagged heavy chain CDR variant HC1.2 with NVS4 light chain
B9: NVS4 heavy chain variant D31S + Y32K (Fab, V domains shown)
VH: B1 VH with N31S, Y32K
VL: B1 VL
notes: CDR variant of NVS4
B10: NVS4 heavy chain variant D57N (Fab, V domains shown)
VH: B1 VH with N31D, D57N
VL: B1 VL
notes: CDR variant of NVS4
B11: NVS4 light chain variant T53K (Fab, V domains shown)
VH: B1 VH with N31D
VL: B1 VL with T53K
notes: CDR variant of NVS4
B12: NVS4 heavy chain variant D55Q (Fab, V domains shown)
VH: B1 VH with N31D, D55Q
VL: B1 VL
notes: CDR variant of NVS4
B13: NVS4 heavy chain variant D31S (Fab, V domains shown)
VH: B1 VH with N31S
VL: B1 VL
notes: CDR variant of NVS4
B14: HC7T (Fab, V domains shown)
VH: B1 VH with N31K, D53K, D55K, D57K, Y60K
VL: B1 VL
notes: Tagged heavy chain CDR variant HC7 with NVS4 light chain
B15: NVS4 heavy chain variant Y59H (Fab, V domains shown)
VH: B1 VH with N31D, Y59H
VL: B1 VL
notes: CDR variant of NVS4
B16: HC8T (Fab, V domains shown)
VH: B1 VH with N31K, D53K, D56K, D57K, Y59K
VL: B1 VL
notes: Tagged heavy chain CDR variant HC8 with NVS4 light chain
B17: NVS4 light chain variant Y92F (Fab, V domains shown)
VH: B1 VH with N31D
VL: B1 VL with Y92F
notes: CDR variant of NVS4
B18: NVS4 heavy chain variant D100N (Fab, V domains shown)
VH: B1 VH with N31D, D100N
VL: B1 VL
notes: CDR variant of NVS4
B19: HC2T (Fab, V domains shown)
VH: B1 VH with D55Q, D56N, D100N
VL: B1 VL
notes: Tagged heavy chain CDR variant HC2 with NVS4 light chain
B20: NVS4 heavy chain variant D56N (Fab, V domains shown)
VH: B1 VH with N31D, D56N
VL: B1 VL
notes: CDR variant of NVS4
B21: HC6T (Fab, V domains shown)
VH: B1 VH with D55Q, D56N, D57Q, D100N, D108N
VL: B1 VL
notes: Tagged heavy chain CDR variant HC6 with NVS4 light chain
B22: NVS4 light chain variant S95K (Fab, V domains shown)
VH: B1 VH with N31D
VL: B1 VL with S95K
notes: CDR variant of NVS4
B23: NVS4 heavy chain variant D55N + D56N (Fab, V domains shown)
VH: B1 VH with N31D, D55N, D56N
VL: B1 VL
notes: CDR variant of NVS4
B24: HC3T (Fab, V domains shown)
VH: B1 VH with D55Q, D56N, D57N, D100N
VL: B1 VL
notes: Tagged heavy chain CDR variant HC3 with NVS4 light chain
B25: NVS4 light chain variant H30K (Fab, V domains shown)
VH: B1 VH with N31D
VL: B1 VL with H30K
notes: CDR variant of NVS4
B26: NVS4 heavy chain variant Y59F (Fab, V domains shown)
VH: B1 VH with N31D, Y59F
VL: B1 VL
notes: CDR variant of NVS4
B27: NVS4 heavy chain variant Y34H (Fab, V domains shown)
VH: B1 VH with N31D, Y34H
VL: B1 VL
notes: CDR variant of NVS4
B28: NVS4 heavy chain variant D108Q (Fab, V domains shown)
VH: B1 VH with N31D, D108Q
VL: B1 VL
notes: CDR variant of NVS4
B29: NVS4 heavy chain variant D108N (Fab, V domains shown)
VH: B1 VH with N31D, D108N
VL: B1 VL
notes: CDR variant of NVS4
B30: HC1.1T (Fab, V domains shown)
VH: B1 VH with N31S, D55Q, D56N, D57N, D108N
VL: B1 VL
notes: Tagged heavy chain CDR variant HC1.1 with NVS4 light chain
B31: HC1T (Fab, V domains shown)
VH: B1 VH with N31S, D55Q, D56N, D57N, D100S, D108N
VL: B1 VL
notes: Tagged heavy chain CDR variant HC1 with NVS4 light chain
B32: NVS4 heavy chain variant D55Q + D56N (Fab, V domains shown)
VH: B1 VH with N31D, D55Q, D56N
VL: B1 VL
notes: CDR variant of NVS4
B33: NVS4 heavy chain variant D55N (Fab, V domains shown)
VH: B1 VH with N31D, D55N
VL: B1 VL
notes: CDR variant of NVS4

Substitutions are numbered along the chain they refer to. In names and notes the source's numbering stands.

For 33 molecules, Kd, koff and kon results are on record in US20170290876A1 (Novartis, published 2017).

The test addresses T1, human VEGF. The test can be described thus: Biacore SPR, hVEGF.
Description: At first, individual CDR residues were substituted and the affinity for hVEGF was measured by Biacore as described below. […] HC8T, and HC9T and the affinity of the resulting peptide-tagged Fab for both HA and hVEGF was measured by Biacore as described below (Table 17).
Affinity of optimized HA-binding peptide tags for HA and human VEGF were measured by Biacore. […] In order to determine target kinetics, two different formats were utilized. […] The second format is an anti-fab capture method in which the fab protein samples are captured and the target proteins flowed over at various concentrations.
The sample compartment which includes the analytes, ligands, and regeneration buffer, is kept at 15° C. All other running conditions were carried out at either 25° C. or 37° C. in 1×HBSE+P buffer. […] Data was collected at 10 Hz and analyzed using the Biacore T200 Evaluation Software (GE Healthcare®). This program uses a global fitting analysis method for the determination of rate and affinity constants for each interaction.
The molecule B1 returned a Kd of 0.00409 nM, a koff of 4.7e-05 s⁻¹ and a kon of 1.15e+07 M⁻¹ s⁻¹.

B2 yielded a Kd of 0.368 nM, a dissociation rate constant (koff) of 0.000363 s⁻¹ and an association rate constant (kon) of 983000 M⁻¹ s⁻¹.

The molecule B3 returned a dissociation constant Kd of 0.00993 nM, a koff of 0.000912 s⁻¹ and a kon of 9.18e+07 M⁻¹ s⁻¹.

Molecule B4 yielded a dissociation constant Kd of 0.0169 nM, a koff of 4.84e-05 s⁻¹ and a kon of 4.77e+06 M⁻¹ s⁻¹.

B5 yielded a Kd of 0.00244 nM, a dissociation rate constant (koff) of 1.37e-05 s⁻¹ and a kon of 5.6e+06 M⁻¹ s⁻¹.

In turn, B6 had a Kd of 0.593 nM, an off-rate constant (koff) of 0.000773 s⁻¹ and a kon of 1.3e+06 M⁻¹ s⁻¹.

B7: binding was characterised by a dissociation constant (Kd) of 0.00534 nM, the off-rate (koff) is 3e-05 s⁻¹ and the association rate constant (kon) is 5.62e+06 M⁻¹ s⁻¹.

In turn, B8 had an equilibrium dissociation constant (Kd) of 0.0414 nM, an off-rate constant (koff) of 0.00456 s⁻¹ and an association rate constant (kon) of 1.1e+08 M⁻¹ s⁻¹.

In turn, B9 displayed an equilibrium dissociation constant (Kd) of 0.185 nM, a koff of 0.000958 s⁻¹ and an on-rate (kon) of 5.18e+06 M⁻¹ s⁻¹.

For the molecule B10, the Kd was found to be 0.132 nM, the koff was found to be 0.0014 s⁻¹ and the on-rate constant (kon) worked out at 1.06e+07 M⁻¹ s⁻¹.

Take B11: the Kd was found to be 0.00282 nM, the koff came out at 1.3e-05 s⁻¹ and the on-rate constant (kon) stood at 4.6e+06 M⁻¹ s⁻¹.

Molecule B12 returned a Kd of 0.0823 nM, a koff of 0.000541 s⁻¹ and an association rate constant (kon) of 6.57e+06 M⁻¹ s⁻¹.

Consider B13, for which binding was put at a Kd of 0.00886 nM, the off-rate (koff) was found to be 4.67e-05 s⁻¹ and the association rate constant (kon) turned out to be 5.27e+06 M⁻¹ s⁻¹.

B14 returned a Kd of 0.554 nM, a dissociation rate constant (koff) of 0.186 s⁻¹ and a kon of 3.37e+08 M⁻¹ s⁻¹.

Regarding B15, the Kd was determined as 0.0563 nM, the koff was 0.000119 s⁻¹ and the on-rate constant (kon) came out at 2.11e+06 M⁻¹ s⁻¹.

Take B16: the Kd was determined as 0.948 nM, the off-rate (koff) is 0.0026 s⁻¹ and the on-rate (kon) worked out at 2.74e+06 M⁻¹ s⁻¹.

Turning to B17, binding was characterised by a dissociation constant (Kd) of 0.0415 nM, the off-rate constant (koff) is 7.84e-05 s⁻¹ and the kon was found to be 1.89e+06 M⁻¹ s⁻¹.

For the molecule B18, binding was put at a Kd of 0.00549 nM, the koff worked out at 2.57e-05 s⁻¹ and the on-rate (kon) was found to be 4.68e+06 M⁻¹ s⁻¹.

B19 gave a Kd of 0.0111 nM, a koff of 0.000862 s⁻¹ and a kon of 7.8e+07 M⁻¹ s⁻¹.

Take B20: the dissociation constant Kd is 0.00765 nM, the koff is 4.84e-05 s⁻¹ and the on-rate (kon) is 6.33e+06 M⁻¹ s⁻¹.

The molecule B21 gave an equilibrium dissociation constant (Kd) of 0.0499 nM, an off-rate constant (koff) of 0.00624 s⁻¹ and a kon of 1.25e+08 M⁻¹ s⁻¹.

As to B22, the Kd came to 0.0819 nM, the off-rate constant (koff) was 0.000482 s⁻¹ and the on-rate constant (kon) amounted to 5.88e+06 M⁻¹ s⁻¹.

For B23, binding was put at a Kd of 0.108 nM, the off-rate (koff) is 0.000951 s⁻¹ and the kon worked out at 8.82e+06 M⁻¹ s⁻¹.

B24 had a Kd of 0.08 nM, an off-rate (koff) of 0.00898 s⁻¹ and an on-rate constant (kon) of 1.12e+08 M⁻¹ s⁻¹.

B25 registered a dissociation constant (Kd) of 0.0355 nM, a koff of 0.000149 s⁻¹ and a kon of 4.22e+06 M⁻¹ s⁻¹.

In turn, B26 displayed a Kd of 0.0311 nM, a koff of 0.000104 s⁻¹ and a kon of 3.34e+06 M⁻¹ s⁻¹.

With B27, the affinity, expressed as Kd, was 0.15 nM; the off-rate (koff) is 0.000445 s⁻¹; the kon amounted to 2.97e+06 M⁻¹ s⁻¹.

B28 showed a dissociation constant (Kd) of 0.00668 nM, a koff of 4.54e-05 s⁻¹ and a kon of 6.8e+06 M⁻¹ s⁻¹.

As for B29, the Kd was 0.00985 nM, the off-rate (koff) worked out at 5.73e-05 s⁻¹ and the kon was 5.82e+06 M⁻¹ s⁻¹.

As for B30, the Kd was 0.0779 nM, the koff came to 0.00854 s⁻¹ and the kon was found to be 1.1e+08 M⁻¹ s⁻¹.

Molecule B31 registered a Kd of 0.0883 nM, a dissociation rate constant (koff) of 0.00852 s⁻¹ and a kon of 9.65e+07 M⁻¹ s⁻¹.

B32 displayed an equilibrium dissociation constant (Kd) of 0.0909 nM, a koff of 0.000656 s⁻¹ and an on-rate (kon) of 7.22e+06 M⁻¹ s⁻¹.

B33 came in with a Kd of 0.103 nM, a dissociation rate constant (koff) of 0.000654 s⁻¹ and an association rate constant (kon) of 6.35e+06 M⁻¹ s⁻¹.
